Measurements taken from patent US20250313626A1 (HARBOUR BIOMED SHANGHAI, published 2025).
Where two headings read alike, the source gives them in different places.

T1: human CD200R1a protein (soluble recombinant) (human, UniProt Q8TD46 29-265)
T1 construct: Soluble protein used in BLI; also called human CD200R1 isoform a; not shown: His tag implied by capture on anti-Penta-HIS biosensors
T1 sequence: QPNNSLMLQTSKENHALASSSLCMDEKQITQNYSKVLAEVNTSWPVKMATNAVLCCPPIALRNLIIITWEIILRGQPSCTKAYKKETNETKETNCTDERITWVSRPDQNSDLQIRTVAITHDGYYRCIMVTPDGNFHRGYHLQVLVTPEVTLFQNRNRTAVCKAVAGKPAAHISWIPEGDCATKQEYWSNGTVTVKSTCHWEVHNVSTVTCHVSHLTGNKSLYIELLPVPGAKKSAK

T2: CD200R1a on PathHunter Jurkat CD200R1a signaling cells (Eurofins DiscoverX, 93-1136C19) (human, UniProt Q8TD46 25-348)
T2 sequence: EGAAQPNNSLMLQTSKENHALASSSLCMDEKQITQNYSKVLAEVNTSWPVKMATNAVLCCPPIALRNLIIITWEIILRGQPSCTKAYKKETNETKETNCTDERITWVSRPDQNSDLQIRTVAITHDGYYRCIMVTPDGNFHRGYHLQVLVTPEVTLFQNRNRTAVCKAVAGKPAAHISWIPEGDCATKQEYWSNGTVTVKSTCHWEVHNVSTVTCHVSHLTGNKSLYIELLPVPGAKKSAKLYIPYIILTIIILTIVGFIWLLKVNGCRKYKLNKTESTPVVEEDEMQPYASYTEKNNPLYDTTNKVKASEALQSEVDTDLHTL

T3: human CD200R1 isoform a on CHOK1 cells (CHOK1/hCD200R1a) (human, UniProt Q8TD46 25-348)
T3 construct: also called CHOK1/CD200R1a
T3 sequence: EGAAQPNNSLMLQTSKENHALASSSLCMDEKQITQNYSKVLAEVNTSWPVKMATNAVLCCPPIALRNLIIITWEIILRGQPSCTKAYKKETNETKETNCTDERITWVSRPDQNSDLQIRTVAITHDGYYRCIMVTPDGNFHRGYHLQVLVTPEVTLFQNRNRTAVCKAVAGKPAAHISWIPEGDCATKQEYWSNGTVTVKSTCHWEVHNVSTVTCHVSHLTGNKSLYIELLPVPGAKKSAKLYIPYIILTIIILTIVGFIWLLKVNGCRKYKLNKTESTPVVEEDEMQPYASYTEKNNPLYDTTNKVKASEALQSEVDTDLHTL

T4: Cynomolgus macaques CD200R1 isoform a on CHOK1 cells (CHOK1/cynoCD200R1a) (Cynomolgus macaques)
T4 chain: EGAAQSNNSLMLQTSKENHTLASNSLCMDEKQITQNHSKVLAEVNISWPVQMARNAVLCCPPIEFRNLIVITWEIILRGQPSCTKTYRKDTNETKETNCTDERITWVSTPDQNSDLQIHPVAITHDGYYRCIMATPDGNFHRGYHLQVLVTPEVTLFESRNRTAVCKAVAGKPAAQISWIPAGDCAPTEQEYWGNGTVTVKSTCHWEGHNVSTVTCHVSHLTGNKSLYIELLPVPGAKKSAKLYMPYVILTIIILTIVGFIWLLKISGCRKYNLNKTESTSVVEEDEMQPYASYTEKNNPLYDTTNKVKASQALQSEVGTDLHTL

B1: Fc-tagged human CD200 protein (Fc fusion)
chain: QVQVVTQDEREQLYTPASLKCSLQNAQEALIVTWQKKKAVSPENMVTFSENHGVVIQPAYKDKINITQLGLQNSTITFWNITLEDEGCYMCLFNTFGFGKISGTACLTVYVQPIVSLHYKFSEDHLNITCSATARPAPMVFWKVPRSGIENSTVTLSHPNGTTSVTSILHIKDPKNQVGKEVICQVLHLGTVTDFKQTVNKG
notes: also called hCD200; not shown: Fc tag

Legend:
[1] = biological target: T1, human CD200R1a protein (soluble …); experiment: BLI (Octet), Fc-tagged hCD200 captured on anti-human Fc sensor, soluble CD200R1a as analyte, 1:1 fit
[2] = biological target: T2, CD200R1a on PathHunter Jurkat CD200R1a …; experiment: cell-based or functional assay
[3] = biological target: T2, CD200R1a on PathHunter Jurkat CD200R1a …; experiment: cell-based or functional assay; remark: listed apart in the source
[4] = biological target: T3, human CD200R1 isoform a on CHOK1 cells …; experiment: flow cytometry, CHOK1/hCD200R1a cells (FITC-Mean); table beside the curves
Protocol: This example is intended to investigate the in vitro binding activity of human anti-CD200R1 monoclonal antibodies to human/Cynomolgus macaques CD200R1a expressed on the surface of cells. The anti-CD200R1 antibodies were produced as described in Example 3.4 and the binding experiments at the cell level were performed using CHOK1/hCD200R1a and CHOK1-cynoCD200R1a.
Briefly, CHOK1/hCD200R1a cells and CHOK1-cynoCD200R1a cells were digested, and collected, and then were resuspended in PBS containing 2% BSA, respectively. The cell density was adjusted to 1×10⁶ cells/mL. The cells were seeded in a 96-well V-bottom plate (Corning, #3894) at 100 μL/well, followed by the addition of test antibodies and reference antibodies in a series diluted concentration, each at 100 μL/well. The cells were incubated away from light at 4° C. for 1 h. Thereafter, the cells in each well were rinsed twice with 100 μL of pre-cooled PBS containing 2% BSA, and centrifuged at 500 g at 4° C. for 5 min, and then the supernatant was discarded. 100 μL of fluorescent secondary antibody (Alexa Fluor 488-conjugated AffiniPure Goat Anti-Human IgG, Fcγ Fragment Specific, Jackson, #109-545-098, diluted in a 1:1000 ratio) was added in each well, and the plate was incubated away from light at 4° C. for 1 h. The cells in each well were rinsed twice with 100 μL of pre-cooled PBS containing 2% BSA, and centrifuged at 500 g at 4° C. for 5 min, and then the supernatant was discarded. Finally, the cells in each well were resuspended in 200 μL of pre-cooled PBS containing 2% BSA, and the fluorescence signal values were read using a BD CantoII flow cytometer.

[5] = biological target: T4, Cynomolgus macaques CD200R1 isoform a …; experiment: flow cytometry, CHOK1/cynoCD200R1a cells (APC-A Mean); table beside the curves
[6] = biological target: T3, human CD200R1 isoform a on CHOK1 cells …; experiment: flow cytometry blocking assay: biotin-labelled human CD200 binding to CHOK1/hCD200R1a cells; y axis Inhibition %
Protocol: (§1) In brief, CHOK1/hCD200R1a cells were digested and resuspended in 2% BSA in PBS. […] The cells were placed at 4° C. and incubated for 1 hour in the dark. […] 100 μL/well of pre-cooled PBS containing 2% BSA was added to rinse the cells twice, centrifugation was performed at 500 g, 4° C. for 5 minutes, and the supernatant was discarded. Fluorescent secondary antibody (PE Streptavidin, BD, Cat #: 554061, 1:200) was added at 100 μL/well, and incubation was performed at 4° C. for 30 minutes in the dark. The cells were washed twice with 200 μL/well of pre-cooled PBS, and were centrifuged at 500 g, 4° C. for 5 minutes, and the supernatant was discarded. Finally, 200 μL/well of pre-cooled PBS was used to resuspend the cells, and the fluorescence signal values were read using ACEA Novocyte 3000 flow cytometer. IC50 values were calculated.

[7] = biological target: T3, human CD200R1 isoform a on CHOK1 cells …; experiment: flow cytometry, CHOK1/hCD200R1a cells (FITC-Mean); table beside the curves, head without unit, x axis Log [Ab] (nM)
[8] = biological target: T3, human CD200R1 isoform a on CHOK1 cells …; experiment: flow cytometry blocking assay: antibody titrated against biotin-labelled human CD200 binding to CHOK1/hCD200R1a cells; head prints EC50 without unit, x axis Log [Ab] (nM), y axis Inhibition %
Protocol: as §1

[9] = biological target: B1; experiment: BLI (Octet), Fc-tagged hCD200 captured on anti-human Fc sensor, soluble CD200R1a as analyte, 1:1 fit
[10] = biological target: T1, human CD200R1a protein (soluble …); experiment: BLI in-tandem competition on His-captured human CD200R1a; row = 1st Ab (400 nM); competitor (2nd Ab) PR006207
Protocol: (§2) To determine if the anti-CD200R1 antibodies bind to human CD200R1a on different or approximate binding epitopes, epitope competition experiments for the anti-CD200R1 antibodies were performed by the ForteBlio Octet® RED96e platform. […] The in-tandem competition assay format was applied, and it contained two association steps. Firstly, the antigen-loaded biosensors bound to each antibody (i.e., First antibody, 1st Ab) at a saturating concentration of 400 nM for 300 seconds to reach equilibrium and then secondly bound to the competing antibodies (i.e., Second antibody, 2nd Ab) of 400 nM for 300 seconds. The second binding signals are recorded as the 100% signal of each antibody when the first antibodies are replaced by kinetic buffer. All the binding data were analyzed using ForteBlio Data Analysis 11.0 software. The inhibition rate was calculated by the following formula: […]

[11] = biological target: T1, human CD200R1a protein (soluble …); experiment: BLI in-tandem competition on His-captured human CD200R1a; row = 1st Ab (400 nM); competitor (2nd Ab) PR007221
Protocol: as §2

[12] = biological target: T1, human CD200R1a protein (soluble …); experiment: BLI in-tandem competition on His-captured human CD200R1a; row = 1st Ab (400 nM); competitor (2nd Ab) PR007223
Protocol: as §2

[13] = biological target: T1, human CD200R1a protein (soluble …); experiment: BLI in-tandem competition on His-captured human CD200R1a; row = 1st Ab (400 nM); competitor (2nd Ab) PR007973
Protocol: as §2

| EC50 [5] | MFI (MAX) [5] | Binder | IC50 of the inhibition of CD200-induced PathHunter Jurkat CD200R1a luminescence (CHOK1/hCD200 cells as CD200 source) [2] | MFI(Max) [4] | Blocking(Max) [6] | EC50 [7] | EC50 [8] | also measured |
| --- | --- | --- | --- | --- | --- | --- | --- | --- |
|  |  | B1 |  |  |  |  |  | Kd [1]: 77.1 nM; koff [1]: 0.0177 s⁻¹; kon [1]: 230000 M⁻¹ s⁻¹ |
| 20.5 nM | 33400 | PR006895 (antibody, human IgG1, kappa, Fc variant of PR006480: human IgG1 with L234A, L235A, G237A (EU)) heavy: not shown light: DIQMTQSPPSLSASVGDRVTITCRASQSISSYLNWFQQKAGKAPKLLISATSNLQSGVPSRFSGSGSGTDFTLTISSLQPEDLATYYCQQSYSSPYTFGQGTKVEIKRTVAAPSVFIFPPSDEQLKSGTASVVCLLNNFYPREAKVQWKVDNALQSGNSQESVTEQDSKDSTYSLSSTLTLSKADYEKHKVYACEVTHQGLSSPVTKSFNRGEC | 0.988 nM | 8410 | 49.8% | 0.172 nM | 0.339 nM | IC50 of the inhibition of CD200-induced PathHunter Jurkat CD200R1a luminescence (CHOK1/hCD200 cells as CD200 source) [3]: 0.886 nM |
| 6.86 nM | 50100 | PR007442 (antibody, human IgG1, kappa, PTM variant of PR006895 (human IgG1)) heavy: not shown light: DIQMTQSPPSLSASVGDRVTITCRASQSISSYLNWFQQKAGKAPKLLISATSNLQSGVPSRFSGSGSGTDFTLTISSLQPEDLATYYCQQTLSSPYTFGQGTKVEIKRTVAAPSVFIFPPSDEQLKSGTASVVCLLNNFYPREAKVQWKVDNALQSGNSQESVTEQDSKDSTYSLSSTLTLSKADYEKHKVYACEVTHQGLSSPVTKSFNRGEC | 0.844 nM | 8850 | 80% | 0.108 nM | 0.19 nM |  |
|  |  | Cyno CD200R1a-His (receptor, Soluble protein used in BLI; also called Cynomolgus macaques CD200R1a recombinant protein; not shown: His tag) EGAAQSNNSLMLQTSKENHTLASNSLCMDEKQITQNHSKVLAEVNISWPVQMARNAVLCCPPIEFRNLIVITWEIILRGQPSCTKTYRKDTNETKETNCTDERITWVSTPDQNSDLQIHPVAITHDGYYRCIMATPDGNFHRGYHLQVLVTPEVTLFESRNRTAVCKAVAGKPAAQISWIPAGDCAPTEQEYWGNGTVTVKSTCHWEGHNVSTVTCHVSHLTGNKSLYIELLPVPGAKKSAK |  |  |  |  |  | Kd [9]: 197 nM; koff [9]: 0.0316 s⁻¹; kon [9]: 161000 M⁻¹ s⁻¹ |
|  |  | PR006207 (antibody, human IgG1, kappa, L234A L235A, V domains shown, also called recombinant antibody of I-4P) VH: QVQLVQSGAEVKKPGASVKVSCKASGFSFSSGYYMAWVRQAPGQGLEWMGLIGVGSGSLWYAQKFQGRVTMTRDTSTSTVYMELSSLRSEDTAVYYCARHFALSDPFNLWGQGTLVTVSS VL: EIVLTQSPDFQSVTPKEKVTITCQASESIDSYLLWYQQKPDQSPKLLIKQASTLASGVPSRFSGSGSGTDFTLTINSLEAEDAATYYCQNYYDISSNDFGGGTKVEIKR |  |  |  |  |  | Inhibition ratio (%) [10]: 97.6%; Inhibition ratio (%) [11]: -36.2%; Inhibition ratio (%) [12]: -38.6%; Inhibition ratio (%) [13]: -39.9% |
